Numbered stars: 1 amine (or outer) side, 2 acyl side, 3 side chain; on linkers, the order of the positions; unused ones are H or OH. Bridge positions count the residues as written; N and C are the ends. Square brackets hold non-standard residues; d marks the D form. Ends that are not written are not given here. X7 = 4‑(3,5-Dimethyl-1,2-oxazol-4-yl)‑L‑phenylalanine, Cc1noc(C)c1-c1ccc(C[C@H](N[*:1])C(=O)[*:2])cc1; Oic = O=C(O)[C@@H]1C[C@@H]2CCCC[C@@H]2N1; tBuAla = CC(C)(C)C[C@H](N)C(=O)O; Pen = CC(C)(S)[C@H](N)C(=O)O; 4Amb = NCc1ccc(C(=O)O)cc1; NMeC = CN[C@@H](CS)C(=O)O; Aib = CC(C)(N)C(=O)O; Sar = CNCC(=O)O
How the values were obtained:
[1] = target: T1, recombinant human MASP1 active protease (amino acids 297-699, C-terminal His Tag) (human, UniProt P48740 297-699); experiment: cell-based or functional assay
T1 sequence: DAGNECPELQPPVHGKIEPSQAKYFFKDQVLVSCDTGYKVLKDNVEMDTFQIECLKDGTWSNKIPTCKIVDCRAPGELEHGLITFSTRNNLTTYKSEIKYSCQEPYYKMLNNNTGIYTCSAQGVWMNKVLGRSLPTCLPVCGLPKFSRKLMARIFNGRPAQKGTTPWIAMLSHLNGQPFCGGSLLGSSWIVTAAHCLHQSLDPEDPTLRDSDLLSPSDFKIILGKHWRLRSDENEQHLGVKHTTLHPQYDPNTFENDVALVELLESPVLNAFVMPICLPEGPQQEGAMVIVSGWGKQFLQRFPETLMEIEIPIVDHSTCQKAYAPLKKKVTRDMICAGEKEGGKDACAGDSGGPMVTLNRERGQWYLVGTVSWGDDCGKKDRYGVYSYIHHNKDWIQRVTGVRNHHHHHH

[2] = target: recombinant human MASP2 active protease (amino acids 297-686, C-terminal His Tag) (human, UniProt O00187 297-686); experiment: cell-based or functional assay
recombinant human MASP2 active protease (amino acids 297-686, C-terminal His Tag), sequence (O00187 other isoform, or with tags, fused parts or gaps limits assumed): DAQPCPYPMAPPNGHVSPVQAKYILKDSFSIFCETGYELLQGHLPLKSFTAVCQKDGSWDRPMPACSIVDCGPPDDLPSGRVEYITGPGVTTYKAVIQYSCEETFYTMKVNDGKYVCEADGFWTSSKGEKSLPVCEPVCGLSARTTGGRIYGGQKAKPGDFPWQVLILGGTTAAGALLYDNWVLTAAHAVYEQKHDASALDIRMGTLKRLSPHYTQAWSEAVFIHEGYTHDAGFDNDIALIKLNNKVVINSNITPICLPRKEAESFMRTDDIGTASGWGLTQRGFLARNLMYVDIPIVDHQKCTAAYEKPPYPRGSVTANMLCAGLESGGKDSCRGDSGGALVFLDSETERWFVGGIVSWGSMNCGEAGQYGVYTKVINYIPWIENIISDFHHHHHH

B1: Example 370: fIC+SRSLP-(Oic)-I-(Pen)+IP-NH2 (peptide)
peptide: [dF]ICSRSLP[Oic]I[Pen]IP-NH2
modifications: disulfide 3-11; N-terminus assumed
SMILES: CC[C@H](C)[C@H](NC(=O)[C@H](N)Cc1ccccc1)C(=O)N[C@H]1CSSC(C)(C)[C@@H](C(=O)N[C@H](C(=O)N2CCC[C@H]2C(N)=O)[C@@H](C)CC)NC(=O)[C@H]([C@@H](C)CC)NC(=O)[C@@H]2C[C@@H]3CCCC[C@@H]3N2C(=O)[C@@H]2CCCN2C(=O)[C@H](CC(C)C)NC(=O)[C@H](CO)NC(=O)[C@H](CCCNC(=N)N)NC(=O)[C@H](CO)NC1=O
human MASP1 IC50 [1]: 35 nM
human MASP2 IC50 [2]: 93.5 nM

B2: Example 360: (4-(3,5-Dimethyl-1,2-oxazol-4-yl)-L-phenylalanine)-IC+SRSLP-(Oic)-I-(Pen)+IP-NH2 (peptide)
peptide: [X7]ICSRSLP[Oic]I[Pen]IP-NH2
modifications: disulfide 3-11; N-terminus assumed
SMILES: CC[C@H](C)[C@H](NC(=O)[C@@H](N)Cc1ccc(-c2c(C)noc2C)cc1)C(=O)N[C@H]1CSSC(C)(C)[C@@H](C(=O)N[C@H](C(=O)N2CCC[C@H]2C(N)=O)[C@@H](C)CC)NC(=O)[C@H]([C@@H](C)CC)NC(=O)[C@@H]2C[C@@H]3CCCC[C@@H]3N2C(=O)[C@@H]2CCCN2C(=O)[C@H](CC(C)C)NC(=O)[C@H](CO)NC(=O)[C@H](CCCNC(=N)N)NC(=O)[C@H](CO)NC1=O
human MASP1 IC50 [1]: 31 nM
human MASP2 IC50 [2]: 55 nM

B3: Example 367: ((N-Me)G)-IC+SRSLPPIC+I-(Oic)-D-OH (peptide)
peptide: [Sar]ICSRSLPPICI[Oic]D-OH
modifications: disulfide 3-11; N-terminus assumed
SMILES: CC[C@H](C)[C@H](NC(=O)CNC)C(=O)N[C@H]1CSSC[C@@H](C(=O)N[C@H](C(=O)N2[C@H](C(=O)N[C@@H](CC(=O)O)C(=O)O)C[C@@H]3CCCC[C@@H]32)[C@@H](C)CC)NC(=O)[C@H]([C@@H](C)CC)NC(=O)[C@@H]2CCCN2C(=O)[C@@H]2CCCN2C(=O)[C@H](CC(C)C)NC(=O)[C@H](CO)NC(=O)[C@H](CCCNC(=N)N)NC(=O)[C@H](CO)NC1=O
human MASP1 IC50 [1]: 35 nM
human MASP2 IC50 [2]: 600 nM

Tranexamic-ICSRSLPPI[NMeC]IPD-NH2 (disulfide 2-10) [Example 364: (Tranexamic)-IC+SRSLPPI-((N-Me)C)+IPD-NH2]
human MASP1 IC50 [1]: 33 nM
human MASP2 IC50 [2]: 98 nM

B4: Example 368: IC+SRSLP-(Oic)-I-(Pen)+I-OH (peptide)
peptide: ICSRSLP[Oic]I[Pen]I-OH
modifications: disulfide 2-10; N-terminus assumed
SMILES: CC[C@H](C)[C@H](N)C(=O)N[C@H]1CSSC(C)(C)[C@@H](C(=O)N[C@H](C(=O)O)[C@@H](C)CC)NC(=O)[C@H]([C@@H](C)CC)NC(=O)[C@@H]2C[C@@H]3CCCC[C@@H]3N2C(=O)[C@@H]2CCCN2C(=O)[C@H](CC(C)C)NC(=O)[C@H](CO)NC(=O)[C@H](CCCNC(=N)N)NC(=O)[C@H](CO)NC1=O
human MASP1 IC50 [1]: 35 nM
human MASP2 IC50 [2]: 1200 nM

[Sar]ICSRSLP[Oic]I[Pen]IP-NH2 (disulfide 3-11; also: citrate salt) [Example 376: ((N-Me)G)-IC+SRSLP-(Oic)-I-(Pen)+IP-NH2 (Citrate)]
human MASP1 IC50 [1]: 1.1 nM
human MASP2 IC50 [2]: 35 nM

B5: Example 372: IC+SRSLP-(Oic)-I-(Pen)+IPE-NH2 (peptide)
peptide: ICSRSLP[Oic]I[Pen]IPE-NH2
modifications: disulfide 2-10; N-terminus assumed
SMILES: CC[C@H](C)[C@H](N)C(=O)N[C@H]1CSSC(C)(C)[C@@H](C(=O)N[C@H](C(=O)N2CCC[C@H]2C(=O)N[C@@H](CCC(=O)O)C(N)=O)[C@@H](C)CC)NC(=O)[C@H]([C@@H](C)CC)NC(=O)[C@@H]2C[C@@H]3CCCC[C@@H]3N2C(=O)[C@@H]2CCCN2C(=O)[C@H](CC(C)C)NC(=O)[C@H](CO)NC(=O)[C@H](CCCNC(=N)N)NC(=O)[C@H](CO)NC1=O
human MASP1 IC50 [1]: 36 nM
human MASP2 IC50 [2]: 660 nM

B6: Example 373: (Aib)-IC+SRSLPPIC+IPD-NH2 (peptide)
peptide: [Aib]ICSRSLPPICIPD-NH2
modifications: disulfide 3-11; N-terminus assumed
SMILES: CC[C@H](C)[C@@H]1NC(=O)[C@@H]2CCCN2C(=O)[C@@H]2CCCN2C(=O)[C@H](CC(C)C)NC(=O)[C@H](CO)NC(=O)[C@H](CCCNC(=N)N)NC(=O)[C@H](CO)NC(=O)[C@@H](NC(=O)[C@@H](NC(=O)C(C)(C)N)[C@@H](C)CC)CSSC[C@@H](C(=O)N[C@H](C(=O)N2CCC[C@H]2C(=O)N[C@@H](CC(=O)O)C(N)=O)[C@@H](C)CC)NC1=O
human MASP1 IC50 [1]: 37 nM
human MASP2 IC50 [2]: 450 nM

B7: Example 362: (4-(Aminomethyl)benzoic acid)-IC+SRSLPPI-((N-Me)C)+IPD-NH2 (peptide)
peptide: [4Amb]ICSRSLPPI[NMeC]IPD-NH2
modifications: disulfide 3-11; N-terminus assumed
SMILES: CC[C@H](C)[C@H](NC(=O)c1ccc(CN)cc1)C(=O)N[C@H]1CSSC[C@@H](C(=O)N[C@H](C(=O)N2CCC[C@H]2C(=O)N[C@@H](CC(=O)O)C(N)=O)[C@@H](C)CC)N(C)C(=O)[C@H]([C@@H](C)CC)NC(=O)[C@@H]2CCCN2C(=O)[C@@H]2CCCN2C(=O)[C@H](CC(C)C)NC(=O)[C@H](CO)NC(=O)[C@H](CCCNC(=N)N)NC(=O)[C@H](CO)NC1=O
human MASP1 IC50 [1]: 33 nM
human MASP2 IC50 [2]: 65 nM

B8: Example 369: IC+SRSLP-(Oic)-I-(Pen)+IPE-OH (peptide)
peptide: ICSRSLP[Oic]I[Pen]IPE-OH
modifications: disulfide 2-10; N-terminus assumed
SMILES: CC[C@H](C)[C@H](N)C(=O)N[C@H]1CSSC(C)(C)[C@@H](C(=O)N[C@H](C(=O)N2CCC[C@H]2C(=O)N[C@@H](CCC(=O)O)C(=O)O)[C@@H](C)CC)NC(=O)[C@H]([C@@H](C)CC)NC(=O)[C@@H]2C[C@@H]3CCCC[C@@H]3N2C(=O)[C@@H]2CCCN2C(=O)[C@H](CC(C)C)NC(=O)[C@H](CO)NC(=O)[C@H](CCCNC(=N)N)NC(=O)[C@H](CO)NC1=O
human MASP1 IC50 [1]: 35 nM
human MASP2 IC50 [2]: 420 nM

AICSRSLPPIC[2‑Methyl‑D‑alloisoleucine]PD-NH2 (disulfide 3-11) [Example 374: AIC+SRSLPPIC+(2-Methyl-D-alloisoleucine)-PD-NH2]
human MASP1 IC50 [1]: 37 nM
human MASP2 IC50 [2]: 14000 nM

B9: Example 371: PPIC+SRS-((tBu)A)-PPI-(Pen)+I-NH2 (peptide)
peptide: PPICSRS[tBuAla]PPI[Pen]I-NH2
modifications: disulfide 4-12; N-terminus assumed
SMILES: CC[C@H](C)[C@H](NC(=O)[C@H]1NC(=O)[C@H]([C@@H](C)CC)NC(=O)[C@@H]2CCCN2C(=O)[C@@H]2CCCN2C(=O)[C@H](CC(C)(C)C)NC(=O)[C@H](CO)NC(=O)[C@H](CCCNC(=N)N)NC(=O)[C@H](CO)NC(=O)[C@@H](NC(=O)[C@@H](NC(=O)[C@@H]2CCCN2C(=O)[C@@H]2CCCN2)[C@@H](C)CC)CSSC1(C)C)C(N)=O
human MASP1 IC50 [1]: 36 nM
human MASP2 IC50 [2]: 810 nM

B10: Example 361: ((N-Me)G)-PIC+SRS-((tBu)A)-PPI-(Pen)+IP-NH2 (peptide)
peptide: [Sar]PICSRS[tBuAla]PPI[Pen]IP-NH2
modifications: disulfide 4-12; N-terminus assumed
SMILES: CC[C@H](C)[C@H](NC(=O)[C@@H]1CCCN1C(=O)CNC)C(=O)N[C@H]1CSSC(C)(C)[C@@H](C(=O)N[C@H](C(=O)N2CCC[C@H]2C(N)=O)[C@@H](C)CC)NC(=O)[C@H]([C@@H](C)CC)NC(=O)[C@@H]2CCCN2C(=O)[C@@H]2CCCN2C(=O)[C@H](CC(C)(C)C)NC(=O)[C@H](CO)NC(=O)[C@H](CCCNC(=N)N)NC(=O)[C@H](CO)NC1=O
human MASP1 IC50 [1]: 32 nM
human MASP2 IC50 [2]: 1000 nM
